Assay results as given in PMC3787081, “The Heteromultimeric Debranching Enzyme Involved in Starch Synthesis in Arabidopsis Requires Both Isoamylase1 and Isoamylase2 Subunits for Complex Stability and Activity” (PLoS ONE, 2013).

Biological target: T1, ISA2-TAP (ISA2 with a C-terminal tandem affinity purification tag) (Arabidopsis, UniProt Q8L735 71-882)
T1 construct: Isoamylase 2 (ISA2) of Arabidopsis thaliana; the chloroplast transit peptide is probably removed in the plant (surmised); also called TAP-tagged ISA2; ISA2-TAP tagged protein; source: Arabidopsis isa2-1 plants transformed with 35S::ISA2-TAP, leaf extract
T1 sequence (looked up): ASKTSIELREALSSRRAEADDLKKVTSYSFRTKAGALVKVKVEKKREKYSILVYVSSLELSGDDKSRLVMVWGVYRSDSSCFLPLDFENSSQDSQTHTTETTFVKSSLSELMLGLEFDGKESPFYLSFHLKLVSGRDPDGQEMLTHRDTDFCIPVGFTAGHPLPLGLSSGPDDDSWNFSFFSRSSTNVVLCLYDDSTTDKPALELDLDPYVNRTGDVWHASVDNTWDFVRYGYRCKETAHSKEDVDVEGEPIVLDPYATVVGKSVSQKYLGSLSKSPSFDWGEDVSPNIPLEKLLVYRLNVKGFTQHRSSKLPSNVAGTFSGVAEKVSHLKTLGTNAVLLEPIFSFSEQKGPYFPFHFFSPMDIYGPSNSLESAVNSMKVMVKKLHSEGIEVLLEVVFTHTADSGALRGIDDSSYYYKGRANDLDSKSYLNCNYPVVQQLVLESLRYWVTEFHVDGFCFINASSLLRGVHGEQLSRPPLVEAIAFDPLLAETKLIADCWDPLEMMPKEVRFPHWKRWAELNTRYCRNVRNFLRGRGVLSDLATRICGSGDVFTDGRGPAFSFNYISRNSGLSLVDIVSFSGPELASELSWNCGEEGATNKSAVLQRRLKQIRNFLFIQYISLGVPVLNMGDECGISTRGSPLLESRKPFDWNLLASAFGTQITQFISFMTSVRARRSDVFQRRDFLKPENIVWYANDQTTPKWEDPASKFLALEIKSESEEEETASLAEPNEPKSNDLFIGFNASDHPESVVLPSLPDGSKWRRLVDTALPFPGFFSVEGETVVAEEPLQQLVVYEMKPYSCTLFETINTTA
Assay: affinity purification with mass spectrometry; tandem affinity purification of ISA2-TAP from leaf extracts (IgG-Sepharose, TEV elution, Calmodulin Sepharose with 2 mM CaCl2, EGTA elution); SDS-PAGE, silver stain, in-gel tryptic digestion, LC-MS/MS; wild-type extracts as control
Conditions: partners not purified

B1: Isoamylase1 (ISA1), Arabidopsis, endogenous (enzyme, UniProt O04196 44-783, looked up)
chain: AKDRRSNEAENIAVVEKPLKSDRFFISDGLPSPFGPTVRDDGVNFSVYSTNSVSATICLISLSDLRQNKVTEEIQLDPSRNRTGHVWHVFLRGDFKDMLYGYRFDGKFSPEEGHYYDSSNILLDPYAKAIISRDEFGVLGPDDNCWPQMACMVPTREEEFDWEGDMHLKLPQKDLVIYEMHVRGFTRHESSKIEFPGTYQGVAEKLDHLKELGINCIELMPCHEFNELEYYSYNTILGDHRVNFWGYSTIGFFSPMIRYASASSNNFAGRAINEFKILVKEAHKRGIEVIMDVVLNHTAEGNEKGPIFSFRGVDNSVYYMLAPKGEFYNYSGCGNTFNCNHPVVRQFILDCLRYWVTEMHVDGFRFDLGSIMSRSSSLWDAANVYGADVEGDLLTTGTPISCPPVIDMISNDPILRGVKLIAEAWDAGGLYQVGMFPHWGIWSEWNGKFRDVVRQFIKGTDGFSGAFAECLCGSPNLYQGGRKPWHSINFICAHDGFTLADLVTYNNKNNLANGEENNDGENHNYSWNCGEEGDFASISVKRLRKRQMRNFFVSLMVSQGVPMIYMGDEYGHTKGGNNNTYCHDNYMNYFRWDKKEEAHSDFFRFCRILIKFRDECESLGLNDFPTAKRLQWHGLAPEIPNWSETSRFVAFSLVDSVKKEIYVAFNTSHLATLVSLPNRPGYRWEPFVDTSKPSPYDCITPDLPERETAMKQYRHFLDANVYPMLSYSSIILLLSPIKDP
notes: Isoamylase 1 (ISA1) of Arabidopsis thaliana, endogenous protein in soluble leaf extracts; Chloroplast protein; also called AtISA1; source: endogenous, Arabidopsis leaf extracts (wild type and ISA2-TAP plants)
stoichiometry N: 1
